Laboratory results from patent US8445275B2, “Induction of dendritic cell development with macrophage-colony stimulating factor (M-CSF)” (Bavarian Nordic A/S, priority 2007, dated 2013).

Key:
[1] = tested on: FL cultures (FL-DC generation, Flt3); assay: Inhibitor effect on cell numbers in FL BM cultures (FL-DC generation); assay type: cell-based, mouse; conditions: range of concentrations
Description: FIG. 4 and FIG. 8. The generation of M-DC is inhibited by a c-FMS inhibitor. Replicate M-CSF and FL cultures were conducted in parallel in the presence or absence of a range of A: cFMS Receptor Tyrosine Kinase Inhibitor or B: Flt3 Inhibitor concentrations. At the end of the culture period all cells were counted. The number of cells harvested from cultures without inhibitor was set at 100%. Cells from cultures containing inhibitor were expressed as a percentage of cells obtained in the absence of inhibitor. The data shown in each panel are from one experiment each, representative of 2 experiments carried out for each of the inhibitors.
(§1) M-CSF and FL BM cultures—BM cells were flushed from femurs and tibiae of mice. Red cell lysis buffer (Sigma-Aldrich) was used to deplete red blood cells from the BM cell suspensions. BM cells were then either cultured directly or after depletion. To deplete, BM cells were incubated for 30 min with rat antibodies to CD11c and CD45R (B220) followed by 30 min incubation with goat anti-rat magnetic beads (Qiagen, Hilden, Germany). The depletion procedure routinely removed 65-80% of total BM cells. It should be noted that depletion with the beads only, in the absence of the rat antibodies, also depleted about 50% of the BM cells, presumably via FcR/Ig interactions. […]

M-pDC = assay: Activation and cytokine production of sorted M-pDC by TLR ligands; assay type: cell-based, mouse; conditions: TLR2 ligand 1 μg/ml, 18 hrs
Description: Activation of DC subsets and analysis of cytokine production by ELISA—Unsorted M-CSF or FL BM cultures or sorted DCs (0.25−0.5×10^6 cells/ml) were stimulated for 18-24 hrs in complete media with or without an added stimulus. The stimuli used were as follows: 1 μg/ml Pam-3-Cys, 100 μg/ml poly(I:C), 1 μg/ml LPS, 1 μg/ml R837, 1 mM Loxoribine, 0.5 μM CpG2216, 0.5 μM CpG1668. Culture supernatants were assayed for the presence of IFN-α by two-site ELISA as previously described (21). Other cytokines (IL-12 p70, IL-6, TNF-α, MCP-1 and IFN-γ) were measured using the Cytometric Bead Array, Mouse Inflammation Kit (Becton Dickinson). Stimulated DCs were blocked as stated above and stained with antibodies directed to CD8a, CD40, CD69, CD80 and CD86.
The survival of the M-pDC to these stimuli was extremely poor (<5%), data not shown.
Similar to FL-pDCs and ex-vivo pDCs, sorted M-pDC were activated with ligands for TLR7 and 9, as indicated by elevated expression of CD8a, CD69, CD86 and CD40 (FIG. 3B and data not shown). M-pDC only produced detectable cytokines to TLR7 and 9 ligands (FIG. 3C and data not shown). In response to a type A CpG-ODN (CpG2216) M-pDCs produced high levels of IFN-α (FIG. 3C). […] The production of IL-10, IL-12p70, MCP-1 and IFN-γ by the M-pDC was also tested but none of these cytokines were detected.

[2] = tested on: mouse bone marrow (BM) cells; assay: IFN-α production of M-CSF BM cultures in response to CpG-2216 (ELISA); assay type: cell-based
Description: as §1, with “interactions. Total BM cells or depleted BM cells were cultured at 1.5×10^6 cells/ml in RPMI-1640 media (Gibco) supplemented with 10% FCS, 50 μM beta-mercaptoethanol, 100 IU/ml penicillin/streptomycin (complete media) and either 20 ng/ml recmuM-CSF or rechu-MCSF or 35 ng/ml recmuFL for 6-8 days at 37° C. in a humidified atmosphere containing 5% CO2.” for “interactions.”
Activation of DC subsets and analysis of cytokine production by ELISA—Unsorted M-CSF or FL BM cultures or sorted DCs (0.25−0.5×10^6 cells/ml) were stimulated for 18-24 hrs in complete media with or without an added stimulus. […] Other cytokines (IL-12 p70, IL-6, TNF-α, MCP-1 and IFN-γ) were measured using the Cytometric Bead Array, Mouse Inflammation Kit (Becton Dickinson). […]

[3] = tested on: BM cells depleted of B220+ and CD11c+ cells; assay: pDC/cDC development in M-CSF BM cultures (CD11c/CD45RA staining); assay type: cell-based, mouse
Description: M-CSF and FL BM cultures—BM cells were flushed from femurs and tibiae of mice. Red cell lysis buffer (Sigma-Aldrich) was used to deplete red blood cells from the BM cell suspensions. BM cells were then either cultured directly or after depletion. To deplete, BM cells were incubated for 30 min with rat antibodies to CD11c and CD45R (B220) followed by 30 min incubation with goat anti-rat magnetic beads (Qiagen, Hilden, Germany). The depletion procedure routinely removed 65-80% of total BM cells. It should be noted that depletion with the beads only, in the absence of the rat antibodies, also depleted about 50% of the BM cells, presumably via FcR/Ig interactions. Total BM cells or depleted BM cells were cultured at 1.5×10^6 cells/ml in RPMI-1640 media (Gibco) supplemented with 10% FCS, 50 μM beta-mercaptoethanol, 100 IU/ml penicillin/streptomycin (complete media) and either 20 ng/ml recmuM-CSF or rechu-MCSF or 35 ng/ml recmuFL for 6-8 days at 37° C. in a humidified atmosphere containing 5% CO2. The M-CSF cultures were fed with fresh M-CSF every 3 days, without media change.
Surface staining of M-CSF or FL BM cultures—Harvested cells were washed in PBS containing 2% FCS and 2 mM EDTA (FACS buffer). FcR binding was then blocked by incubation with 1 mg/ml purified anti CD16/32 monoclonal antibody (clone 2.4G2) for 20 mins on ice. An equal volume of 2× concentrated specific antibody stain was then added to the cell suspension and incubated for a further 20 mins. Cells were washed in FACS buffer and resuspended in FACS buffer containing 1 μg/ml propidium iodide.
Indeed, a population of 10-20% of cells within the cultures expressed high levels of CD45RA and medium levels of CD11c, together with the lack of CD3, CD19 or CD49b or NK1.1 expression, low side scatter and forward scatter this was commensurate with the phenotype of pDCs (FIG. 1B and data not shown).
It was clear that M-CSF could drive pDC development yet the yield of pDCs was substantially less then that obtained with FL. […]

C57BL/6 or FLKO mice = assay: In vivo M-CSF treatment, DC numbers in spleen and peritoneal lavage; parameters: species or system mouse
Description: In vivo M-CSF treatment—Wild type and FLKO mice were treated ip with 10 μg of M-CSF in 0.01% BSA (100 μl volume), or with vehicle alone, for five consecutive days. At the end of five days mice were sacrificed. The peritoneum was flushed 3 times with Complete media and then organs were collected for DC purification.
Ex vivo DC purification—DCs were purified from spleens of M-CSF or vehicle treated mice essentially as previously described (21), using FACS buffer, RPMI and 1.077A Nycodenz (Progen Biotechnik GmbH, Heidelberg, Germany) that was adjusted to mouse osmolarity (308 mOsm).
Specifically cDC were reduced about 2-fold and pDC about 3-fold. This was substantially less of an effect than that seen in mice lacking FL but nevertheless, lack of M-CSF did result in reduced DC numbers, further substantiating the assumption that M-CSF is a DC poietin. To further validate the studies initiated by MacDonald et al (2005), M-CSF was administered to mice in order to analyze whether M-CSF could actually increase DC numbers in vivo. According to other references in the prior art, a range of exogenous M-CSF concentrations in the range of 10 to 200 μg/day has been administered. The source of M-CSF used has varied widely and consequently, as well as the specific activity. It is thus impossible to gauge an optimal or saturating level of M-CSF to administer. Moreover, it has been reported that M-CSF has an extremely short half-life of only 10 mins in the circulation^28. Due to the prohibitive cost of commercial M-CSF with a determined specific activity a ‘proof of principal’ trial experiment was conducted and 10 μg/day of M-CSF to C57BL/6 or FLKO mice for 5 days were administered. This amount was neither titrated nor was it attempted to extend the application period. […] Said observations indicate that M-CSF indeed was inducing an effect in vivo.

[4] = tested on: CMP, CLP, GMP from C57BL/6 BM; assay: M-CSF cultures of purified progenitors (CMP, CLP, GMP) spiked into UBC-GFP BM cells; assay type: cell-based, mouse; conditions: M-CSF culture 6 days
Description: CMP (Lin^−Sca-1^−ckit^+CD34^+FcR^int), CLP (Lin^−Sca-1^+c-kit^intIL-7R^+Thy-1^−) or granulocyte/macrophage progenitors (GMP, Lin^−Sca-1^−c-kit^+CD34^+FcR^hi) were isolated from C57BL/6 BM as previously described^21 and sorted to greater than 95% purity on a FACS-ARIA instrument. 2500 cells and serial 2-fold dilutions thereof were added to a 1 ml suspension of UBC-GFP BM cells in a 24-well plate. Final UBC-GFP BM cell concentration was 1.0×10^6 cells/ml. M-CSF or FL cultures were carried out in these wells as described above. After 6 days, samples were enumerated, analysed by FACS, and progeny arising from the C57BL/6 progenitors were gated as GFP^neg cells. To analyse M-CSFR (CD115) and Flt3 (CD135) expression on CLP (Lin^−Sca-1^+c-kit^intIL-7R^+Thy-1^−), lineage depleted cells were first stained with Sca-1-FITC and Thy-1-PE antibodies and the Sca-1^+Thy-1^− cells were sorted. These pre-enriched cells (>95% purity when reanalysed) were then stained with CD117-PE-CY7, IL-7R-APC and either CD115-PE or CD135-PE.
The identification of DC subtypes that could be generated in the absence of FL both in vivo and in vitro immediately raises the question of the nature of their precursor cells. It has been considered whether this factor acts on an early lineage progenitor or, since M-CSF is traditionally considered a ‘myeloid’ growth factor, on a later precursor within the myeloid lineage to generate M-DC. CMP, GMP and CLP were purified from mouse BM. Serial dilutions of the purified cell populations were admixed with ‘feeder’ UBC-GFP BM cells and M-CSF cultures were carried out for 6 days.

[5] = reported in the literature; cited from earlier work
[6] = 10 μg/day ip for 5 days, C57BL/6 and FLKO mice, vs vehicle

In the case of Flt3 Inhibitor II, the “effect on generation of FL-DC” value [1] is reported as “highly inhibitory”.

With “palmitoyl-3-cysteine-serine-lysine-4 [Pam-3-Cys]” the “surface activation of M-pDC” value (M-pDC) was “very minor surface activation”.

B1: M-CSF: Recombinant murine or human Macrophage-Colony Stimulating Factor obtained from Tebu-Bio / R&D Systems (protein, UniProt P09603 33-554, looked up)
Macrophage colony-stimulating …: EEVSEYCSHMIGSGHLQSLQRLIDSQMETSCQITFEFVDQEQLKDPVCYLKKAFLLVQDIMEDTMRFRDNTPNAIAIVQLQELSLRLKSCFTKDYEEHDKACVRTFYETPLQLLEKVKNVFNETKNLLDKDWNIFSKNCNNSFAECSSQDVVTKPDCNCLYPKAIPSSDPASVSPHQPLAPSMAPVAGLTWEDSEGTEGSSLLPGEQPLHTVDPGSAKQRPPRSTCQSFEPPETPVVKDSTIGGSPQPRPSVGAFNPGMEDILDSAMGTNWVPEEASGEASEIPVPQGTELSPSRPGGGSMQTEPARPSNFLSASSPLPASAKGQQPADVTGTALPRVGPVRPTGQDWNHTPQKTDHPSALLRDPPEPGSPRISSLRPQGLSNPSTLSAQPQLSRSHSSGSVLPLGELEGRRSTRDRRSPAEPEGGPASEGAARPLPRFNSVPLTDTGHERQSEGSFSPQLQESVFHLLVPSVILVLLAVGGLLFYRWRRRSHQEPQRADSPLEQPEGSPLTQDDRQVELPV
With B1 the “CpG-induced IFN-α producing capacity” value ([2]; DC-depleted BM cells cultured with M-CSF for 6 days, non-adherent cells) was “potent IFN-α producing capacity was detected again”, the “IFN-α production in response to CpG-2216” value ([2]; total BM cells cultured with M-CSF, 0-7 days, adherent and non-adherent cells) was “high levels” and the “pDC development in BM cultures from FLKO mice” value ([3]; FLKO BM depleted of DC, exogenous M-CSF only) was “pDCs developed even in the absence of FL”. For the same molecule, the “population of cells with pDC phenotype (CD45RA high, CD11c medium) within the cultures” value ([3]; non-adherent M-CSF-generated cells, day 6) was 10-20%, the “efficiency of pDC yield compared with FL” value ([3]; side by side after six days of culture, less efficient than FL) was “approximately 10 fold” and the “increase of cells that resembled DC in the peritoneal lavage” value (C57BL/6 or FLKO mice; 10 μg/day for 5 days, a C57BL/6 mouse, data not shown) was “greater than 6 fold”. The “F4/80hi cells in peritoneal lavages” value (C57BL/6 or FLKO mice; 10 μg/day for 5 days, data not shown) was “huge increase”, the total splenocytes (C57BL/6 or FLKO mice; 10 μg/day ip for 5 days) was “did not induce an increase” and the “increase in cDC numbers in the spleen” value (C57BL/6 or FLKO mice; [6]) was “about 2 fold”. The “increase in pDC numbers in the spleen” value (C57BL/6 or FLKO mice; [6]) was “about 2 fold”, the “output of M-cDC per input progenitor cell” value ([4]; CLP) was “about 5” and the “output of M-pDC per input progenitor cell” value ([4]; CLP) was “at least 10”. For the same molecule, the “output of M-cDC per input progenitor cell” value ([4]; CMP) was 8-10, the “M-DC production from progenitors” value ([4]; GMP) was “not capable of M-DC production” and the “half-life in the circulation” value [5] was 10 min.
